Consider 1 substance from article PMC5066740.

Assay [1] deals with MtTT8 (Medicago truncatula).
For assay [2], the target named is MtWD40-1 (Medicago truncatula).

Chain of MtTT8 (Medicago truncatula) (main, as listed by the source): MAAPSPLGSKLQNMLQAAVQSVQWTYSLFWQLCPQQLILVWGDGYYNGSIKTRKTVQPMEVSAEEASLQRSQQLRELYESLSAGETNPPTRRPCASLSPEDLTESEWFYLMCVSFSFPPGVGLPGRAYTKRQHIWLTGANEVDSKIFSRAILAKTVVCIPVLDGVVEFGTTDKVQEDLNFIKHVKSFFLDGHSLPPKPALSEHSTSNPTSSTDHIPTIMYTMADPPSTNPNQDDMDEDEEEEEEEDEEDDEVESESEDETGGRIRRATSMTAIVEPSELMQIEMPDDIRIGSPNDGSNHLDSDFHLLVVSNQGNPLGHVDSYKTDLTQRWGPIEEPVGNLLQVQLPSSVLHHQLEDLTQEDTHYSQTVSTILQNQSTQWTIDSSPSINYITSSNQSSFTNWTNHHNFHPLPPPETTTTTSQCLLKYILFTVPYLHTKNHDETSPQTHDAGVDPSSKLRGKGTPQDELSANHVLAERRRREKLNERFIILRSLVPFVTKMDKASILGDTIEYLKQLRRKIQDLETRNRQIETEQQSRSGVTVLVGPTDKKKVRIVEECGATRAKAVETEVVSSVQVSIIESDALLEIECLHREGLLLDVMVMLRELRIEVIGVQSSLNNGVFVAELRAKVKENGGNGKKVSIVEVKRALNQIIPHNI

Regarding “Medicago PROANTHOCYANIDIN REGULATOR (MtPAR) (natural protein)”, the ANR promoter::luciferase reporter activity in Arabidopsis leaves co-bombarded with 35S-driven MtPAR, MtTT8 and MtWD40-1 effectors, against empty vector controls in assay [1] and in assay [2] was 9 fold throughout.
